Target: the molecule itself
Assay: crystal structure

B1: alanine:glyoxylate aminotransferase 1, minor allele (AGT-Mi), purified recombinant (enzyme, human)
chain: MASHKLLVTPLKALLKPLSIPNQLLLGPGPSNLPPRIMAAGGLQMIGSMSKDMYQIMDEIKEGIQYVFQTRNPLTLVISGSGHCALEAALVNVLEPGDSFLVGANGIWGQRAVDIGERIGARVHPMTKDPGGHYTLQEVEEGLAQHKPVLLFLTHGESSTGVLQPLDGFGELCHRYKCLLLVDSVASLGGTPLYMDRQGIDILYSGSQKALNAPPGTSLISFSDKAKKKMYSRKTKPFSFYLDIKWLANFWGCDDQPRMYHHTIPVISLYSLRESLALIAEQGLENSWRQHREAAAYLHGRLQALGLQLFVKDPALRLPTVTTVAVPAGYDWRDIVSYVMDHFDIEIMGGLGPSTGKVLRIGLLGCNATRENVDRVTEALRAALQHCPKKKL
binding result: binds
